The values that follow come from PMC11642901 (bioRxiv, 2024).

The target in this assay is hMOG isoform 1 on live GL261 cells (human, UniProt Q16653). In words: flow cytometry on cells. Background: Flow cytometry measures light scatter and fluorescence of single cells or particles in a stream.
Sequence of hMOG isoform 1 on live GL261 cells (Q16653 30-247): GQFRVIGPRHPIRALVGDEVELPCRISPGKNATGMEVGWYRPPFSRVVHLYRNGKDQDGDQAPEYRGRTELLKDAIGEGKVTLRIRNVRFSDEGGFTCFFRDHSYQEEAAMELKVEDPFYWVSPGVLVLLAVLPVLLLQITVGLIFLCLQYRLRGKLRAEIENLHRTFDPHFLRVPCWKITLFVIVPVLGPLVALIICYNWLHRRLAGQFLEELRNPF

B1: anti-MOG IgG1 clone 8–18C5 (antibody, V domains shown)
VH: EVKLHESGAGLVKPGASVEISCKATGYTFSSFWIEWVKQRPGHGLEWIGEILPGRGRTNYNEKFKGKATFTAETSSNTAYMQLSSLTSEDSAVYYCATGNTMVNMPYWGQGTTVTVSS
VL: DIELTQSPSSLAVSAGEKVTMSCKSSQSLLNSGNQKNYLAWYQQKPGLPPKLLIYGASTRESGVPDRFTGSGSGTDFTLTISSVQAEDLAVYYCQNDHSYPLTFGAGTKLEIK
On to B1, for which the binding result is on record as “binds”.
